The target in this test is chimeric FcεRI (human α, rat β/γ) on hRBL^rαKO cells (human | rat (endogenous in RBL-2H3)) (UniProt P12319). As to the kind of experiment: flow cytometry on cells. On the technique in general: In flow cytometry, cells or beads pass a laser one at a time.
Chain of UniProt P12319 (P12319 26-257, change not shown, chain 1 of 3): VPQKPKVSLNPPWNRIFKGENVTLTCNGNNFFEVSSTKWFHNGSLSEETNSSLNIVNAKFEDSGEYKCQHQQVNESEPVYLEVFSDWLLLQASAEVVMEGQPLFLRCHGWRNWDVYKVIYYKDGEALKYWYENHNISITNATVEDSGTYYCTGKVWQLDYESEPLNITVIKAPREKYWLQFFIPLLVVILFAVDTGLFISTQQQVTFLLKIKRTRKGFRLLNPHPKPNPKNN
Chain of UniProt P12319 (P13386 whole entry, change not shown, chain 2 of 3, further chain): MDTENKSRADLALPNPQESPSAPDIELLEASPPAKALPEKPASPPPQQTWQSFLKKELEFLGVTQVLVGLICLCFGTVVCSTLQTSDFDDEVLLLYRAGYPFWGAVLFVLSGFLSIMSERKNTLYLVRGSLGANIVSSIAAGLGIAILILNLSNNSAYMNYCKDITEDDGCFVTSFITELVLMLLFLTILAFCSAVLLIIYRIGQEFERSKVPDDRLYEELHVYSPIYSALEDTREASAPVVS
Chain of UniProt P12319 (P20411 19-86, change not shown, chain 3 of 3, further chain): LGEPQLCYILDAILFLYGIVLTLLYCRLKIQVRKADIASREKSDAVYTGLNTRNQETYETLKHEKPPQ

One may read the koff as a measure of how fast the partners let go of each other. A higher koff goes with fast dissociation. In general, kon refers to the rate constant with which the complex forms. The substance “human IgE, Alexa 488-conjugated (hIgE^Alexa-488) (antibody)” showed a % Receptor Occupied at 3.75 ng/ml IgE of 0.16%, a % Receptor Occupied at 7.5 ng/ml IgE of 0.26%, a % Receptor Occupied at 15 ng/ml IgE of 0.44% and a % Receptor Occupied at 30 ng/ml IgE of 1.1%. The % Receptor Occupied at 60 ng/ml IgE was 1.89%, the % Receptor Occupied at 120 ng/ml IgE was 4%, the % Receptor Occupied at 1000 ng/ml IgE worked out at 28% and the % Receptor Occupied at 4000 ng/ml IgE is 60%. The % Receptor Occupied at 8000 ng/ml IgE was determined as 78%, the % Receptor Occupied at 10000 ng/ml IgE was determined as 83%, the % Receptor Occupied at 15000 ng/ml IgE was 93% and the % Receptor Occupied at 20000 ng/ml IgE was 100%. For the same substance, the off-rate constant (koff) was 1.53e-05 s⁻¹ and the association rate constant (kon) stood at 6230 M⁻¹ s⁻¹.
